Measurements taken from patent US20060045884A1, “Vaccines for autoimmune and infectious disease” (Board of Regents, priority 2004, published 2006).

Target: HLA-A2.1 heavy chain with I125-labeled β2-microglobulin (heterotrimer dissociation assay) (human)
Assay: dissociation of 125I-β2-microglobulin from the HLA-A2.1/peptide/β2m heterotrimer, HPLC gel filtration

Substance: HTLV-1 Tax peptide (aa 11-19) (from UniProt P03409 11-19) (peptide; other documents disagree on this pair)
- T1/2: 133 h
